system: CD8+ T cells from healthy HLA-A*02 donors; experiment: In vitro immunogenicity: priming of CD8+ T cells with aAPCs loaded with peptide/MHC complexes and anti-CD28, pMHC multimer readout; assay type: cell-based, human; conditions: HLA class I peptides, Table 10A
Description: In order to obtain information regarding the immunogenicity of the TUMAPs of the present invention, the inventors performed investigations using an in vitro T-cell priming assay based on repeated stimulations of CD8+ T cells with artificial antigen presenting cells (aAPCs) loaded with peptide/MHC complexes and anti-CD28 antibody.
In order to perform in vitro stimulations by artificial antigen presenting cells loaded with peptide-MHC complex (pMHC) and anti-CD28 antibody, the inventors first isolated CD8+ T cells from fresh HLA-A*02 leukapheresis products via positive selection using CD8 microbeads (Miltenyi Biotec, Bergisch-Gladbach, Germany) of healthy donors obtained from the University clinics Mannheim, Germany, after informed consent.
PBMCs and isolated CD8+ lymphocytes were incubated in T-cell medium (TCM) until use consisting of RPMI-Glutamax (Invitrogen, Karlsruhe, Germany) supplemented with 10% heat inactivated human AB serum (PAN-Biotech, Aidenbach, Germany), 100 U/ml Penicillin/100 μg/ml Streptomycin (Cambrex, Cologne, Germany), 1 mM sodium pyruvate (CC Pro, Oberdorla, Germany), 20 μg/ml Gentamycin (Cambrex). 2.5 ng/ml IL-7 (PromoCell, Heidelberg, Germany) and 10 U/ml IL-2 (Novartis Pharma, Nürnberg, Germany) were also added to the TCM at this step.
Generation of pMHC/anti-CD28 coated beads, T-cell stimulations and readout was performed in a highly defined in vitro system using four different pMHC molecules per stimulation condition and 8 different pMHC molecules per readout condition.
The purified co-stimulatory mouse IgG2a anti human CD28 Ab 9.3 (Jung et al., 1987) was chemically biotinylated using Sulfo-N-hydroxysuccinimidobiotin as recommended by the manufacturer (Perbio, Bonn, Germany). Beads used were 5.6 μm diameter streptavidin coated polystyrene particles (Bangs Laboratories, Illinois, USA).
800.000 beads/200 μl were coated in 96-well plates in the presence of 4×12.5 ng different biotin-pMHC, washed and 600 ng biotin anti-CD28 were added subsequently in a volume of 200 μl. Stimulations were initiated in 96-well plates by co-incubating 1×10^6 CD8+ T cells with 2×10^5 washed coated beads in 200 μl TCM supplemented with 5 ng/ml IL-12 (PromoCell) for 3 days at 37° C. Half of the medium was then exchanged by fresh TCM supplemented with 80 U/ml IL-2 and incubating was continued for 4 days at 37° C. This stimulation cycle was performed for a total of three times. For the pMHC multimer readout using 8 different pMHC molecules per condition, a two-dimensional combinatorial coding approach was used as previously described (Andersen et al., 2012) with minor modifications encompassing coupling to 5 different fluorochromes. Finally, multimeric analyses were performed by staining the cells with Live/dead near IR dye (Invitrogen, Karlsruhe, Germany), CD8-FITC antibody clone SK1 (BD, Heidelberg, Germany) and fluorescent pMHC multimers. For analysis, a BD LSRII SORP cytometer equipped with appropriate lasers and filters was used. Peptide specific cells were calculated as percentage of total CD8+ cells. Evaluation of multimeric analysis was done using the FlowJo software (Tree Star, Oregon, USA). In vitro priming of specific multimer+CD8+ lymphocytes was detected by comparing to negative control stimulations.

Substance | Wells (in vitro immunogenicity, positive wells)
167 (SLWGGDVVL; listed as Homo sapiens) [compound 167] | ++ (20%-49% = ++)
182 (YLAPFLRNV; listed as Homo sapiens) [compound 182] | ++ (20%-49% = ++)
156 (KLVEFDFLGA; listed as Homo sapiens) [compound 156] | + (<20% = +)
176 (SMSGYDQVL; listed as Homo sapiens) [compound 176] | + (<20% = +)
205 (KIVDFSYSV; listed as Homo sapiens) [compound 205] | ++ (20%-49% = ++)
155 (VLSSGLTAA; listed as Homo sapiens) [compound 155] | + (<20% = +)
184 (LMTKEISSV; listed as Homo sapiens) [compound 184] | + (<20% = +)
173 (FVFSFPVSV; listed as Homo sapiens) [compound 173] | ++ (20%-49% = ++)
160 (SLLGGNIRL; listed as Homo sapiens) [compound 160] | ++ (20%-49% = ++)
170 (GLIEIISNA; listed as Homo sapiens) [compound 170] | + (<20% = +)
186 (VLYPHEPTAV; listed as Homo sapiens) [compound 186] | + (<20% = +)

target: HLA-A*02:01 (Homo sapiens, UniProt P04439, D140Y/D185E/D98H/E176V/E277Q/G131W/G231S/I119V/I121R/I166T/I218V/L300P/L318F/N151K/N90K/P208A/P217A/Q86G/Q94H/R138H/R169H/T345S); experiment: MHC binding assay (UV-ligand exchange, β2m ELISA, peptide exchange yield); conditions: binding to HLA-A*02:01 ranged by peptide exchange yield (UV-ligand exchange, β2m ELISA)
Description: Candidate peptides for T cell based therapies according to the present invention were further tested for their MHC binding capacity (affinity). The individual peptide-MHC complexes were produced by UV-ligand exchange, where a UV-sensitive peptide is cleaved upon UV-irradiation, and exchanged with the peptide of interest as analyzed. Only peptide candidates that can effectively bind and stabilize the peptide-receptive MHC molecules prevent dissociation of the MHC complexes. To determine the yield of the exchange reaction, an ELISA was performed based on the detection of the light chain (β2 m) of stabilized MHC complexes. The assay was performed as generally described in Rodenko et al. (Rodenko et al., 2006).
96 well MAXISorp plates (NUNC) were coated over night with 2 μg/ml streptavidin in PBS at room temperature, washed 4× and blocked forth at 37° C. in 2% BSA containing blocking buffer. Refolded HLA-A*02:01/MLA-001 monomers served as standards, covering the range of 15-500 ng/ml. Peptide-MHC monomers of the UV-exchange reaction were diluted 100 fold in blocking buffer. Samples were incubated for 1 h at 37° C., washed four times, incubated with 2 ug/ml HRP conjugated anti-β2 m for 1 h at 37° C., washed again and detected with TMB solution that is stopped with […]. Absorption was measured at 450 nm. Candidate peptides that show a high exchange yield (preferably higher than 50%, most preferred higher than 75%) are generally preferred for a generation and production of antibodies or fragments thereof, and/or T cell receptors or fragments thereof, as they show sufficient avidity to the MHC molecules and prevent dissociation of the MHC complexes.

Peptide exchange | Substance
+++ (>50 = +++) | 79 (FLDPATPRV; listed as Homo sapiens) [compound 79]
+++ (>50 = +++) | 48 (VLMDDTDPLV; listed as Homo sapiens) [compound 48]
+++ (>50 = +++) | 37 (ILSAILVHL; listed as Homo sapiens) [compound 37]
+++ (>50 = +++) | 35 (KLPEPPPLA; listed as Homo sapiens) [compound 35]
+++ (>50 = +++) | 74 (LLQEGEVYSA; listed as Homo sapiens) [compound 74]
++++ (>75% = ++++) | 95 (YLIGQHVTA; listed as Homo sapiens) [compound 95]
+++ (>50 = +++) | 86 (FLISLIISV; listed as Homo sapiens) [compound 86]
+++ (>50 = +++) | 138 (YLTNEGIQYL; listed as Homo sapiens) [compound 138]
+++ (>50 = +++) | 135 (FLLPLIIVL; listed as Homo sapiens) [compound 135]
+++ (>50 = +++) | 80 (ILLDTPLFLL; listed as Homo sapiens) [compound 80]
++ (>20% = ++) | 45 (IIDSSPTAL; listed as Homo sapiens) [compound 45]
+++ (>50 = +++) | 69 (QIWDKILSV; listed as Homo sapiens) [compound 69]
++++ (>75% = ++++) | 3 (YLDEIPPKFSM; listed as Homo sapiens) [compound 3]
+++ (>50 = +++) | 106 (ILLDTPLFL; listed as Homo sapiens) [compound 106]
+++ (>50 = +++) | 102 (GLYEGLDWL; listed as Homo sapiens) [compound 102]
+++ (>50 = +++) | 145 (ALYPGQLVQL; listed as Homo sapiens) [compound 145]
+++ (>50 = +++) | 109 (RLIDDMVAQA; listed as Homo sapiens) [compound 109]
+++ (>50 = +++) | 136 (GLSEPIFQL; listed as Homo sapiens) [compound 136]
+++ (>50 = +++) | 144 (YLAGEAPTL; listed as Homo sapiens) [compound 144]
+++ (>50 = +++) | 25 (SLDSSGFSL; listed as Homo sapiens) [compound 25]
+++ (>50 = +++) | 72 (SLFTGLRSI; listed as Homo sapiens) [compound 72]
+++ (>50 = +++) | 42 (FLIDASQRV; listed as Homo sapiens) [compound 42]

Peptide exchange | Substance
++++ (>75% = ++++) | 78 (FIPDFAVAI; listed as Homo sapiens) [compound 78]
+++ (>50 = +++) | 121 (QLQGYLRSV; listed as Homo sapiens) [compound 121]
+++ (>50 = +++) | 89 (YLFPETEFI; listed as Homo sapiens) [compound 89]
++ (>20% = ++) | 107 (LTLAKLEKV; listed as Homo sapiens) [compound 107]
+++ (>50 = +++) | 63 (LLAGLLVGV; listed as Homo sapiens) [compound 63]
++++ (>75% = ++++) | 20 (YLPDSLTQL; listed as Homo sapiens) [compound 20]
++++ (>75% = ++++) | 1 (ILLQASVQV; listed as Homo sapiens) [compound 1]
+++ (>50 = +++) | 62 (GQLDFSEFL; listed as Homo sapiens) [compound 62]
+++ (>50 = +++) | 38 (TLTSIIVAV; listed as Homo sapiens) [compound 38]
+++ (>50 = +++) | 124 (QIDGTLSTI; listed as Homo sapiens) [compound 124]
++++ (>75% = ++++) | 130 (TLTSKLYSL; listed as Homo sapiens) [compound 130]
+++ (>50 = +++) | 94 (ALADGVPVAL; listed as Homo sapiens) [compound 94]
++++ (>75% = ++++) | 87 (RLLELLQEA; listed as Homo sapiens) [compound 87]
+++ (>50 = +++) | 34 (ALLDEQQVNV; listed as Homo sapiens) [compound 34]
+++ (>50 = +++) | 105 (TLFPSKIGV; listed as Homo sapiens) [compound 105]
+++ (>50 = +++) | 88 (ALASLENHV; listed as Homo sapiens) [compound 88]
+++ (>50 = +++) | 13 (FLEEKEQAAL; listed as Homo sapiens) [compound 13]
++++ (>75% = ++++) | 31 (SLFDGIATGL; listed as Homo sapiens) [compound 31]
++++ (>75% = ++++) | 73 (VLKVFLENV; listed as Homo sapiens) [compound 73]
+++ (>50 = +++) | 142 (FLGENISNFL; listed as Homo sapiens) [compound 142]
++++ (>75% = ++++) | 128 (KLWGQSIQL; listed as Homo sapiens) [compound 128]

Reference: patent US12084522B2, “Peptides, combination of peptides, and cell based medicaments for use in immunotherapy against urinary bladder cancer and other cancers” (Immatics Biotechnologies GmbH, priority 2016, dated 2024)
